Experimental data published in patent US20140357838A1, “N-Terminally Modified Insulin Derivatives” (Novo Nordisk A/S, priority 2011, published 2014).
Starred links: 1 amine or outer side, 2 acyl side, 3 side chain; linkers in the order of their positions; H or OH if unused. Positions of bridges follow the written chain, without caps; N, C: chain ends. Groups on a side chain read outwards from the residue. Chains are numbered I, II in the order given. No end group written: not given here. *: point of attachment. Phe(Nα-CONH2) = NC(=O)N[C@@H](Cc1ccccc1)C(=O)*; C20 diacid = O=C(O)CCCCCCCCCCCCCCCCCCC(=O)*; C18 diacid = O=C(O)CCCCCCCCCCCCCCCCC(=O)*; NMe2Phe = CN(C)[C@@H](Cc1ccccc1)C(=O)*; γGlu = O=C(O)[C@H](CCC(=O)[*:2])N[*:1]; Hydantoyl = NC(=O)NCC(=O)*; AEEA = NCCOCCOCC(=O)O; Me2Gly = CN(C)CC(=O)*

Key:
human insulin receptor [1] = target: T1, human insulin receptor (Homo sapiens, UniProt P06213); experiment: Insulin receptor affinity, SPA antibody capture assay (0% HSA); format: binding; conditions: relative to the affinity of human insulin
Experimental: (§1) SPA-PVT antibody-binding beads, anti-mouse reagent (Amersham Bio-sciences, Cat No. PRNQ0017) are mixed with 25 ml of binding buffer (100 mM HEPES pH 7.8; 100 mM sodium chloride, 10 mM MgSO4, 0.025% Tween-20). […] A total of 100 μl reagent mix is then added to each well in the Packard Optiplate and a dilution series of the N-terminally modified insulin is made in the Optiplate from appropriate samples. The samples are then incubated for 16 hours while gently shaken. The phases are the then separated by centrifugation for 1 min and the plates counted in a Topcounter.

human insulin receptor [2] = target: T1, human insulin receptor; experiment: Insulin receptor affinity, SPA assay with […] HSA in binding buffer; conditions: relative to the affinity of human insulin
Experimental: as §1

duodenum lumen enzymes = experiment: Degradation of insulin analogs using duodenum lumen enzymes; format: in vitro ADME; conditions: rat duodenum lumen enzymes, 100 mM Hepes pH 7.4, 37° C.; degradation half time divided by that of reference insulin
Experimental: Degradation of insulin analogs using duodenum lumen enzymes (prepared by filtration of duodenum lumen content) from SPD rats. The assay is performed by a robot in a 96 well plate (2 ml) with 16 wells available for insulin analogs and standards. Insulin analogs ˜15 μM are incubated with duodenum enzymes in 100 mM Hepes, pH=7.4 at 37° C., samples are taken after 1, 15, 30, 60, 120 and 240 min and reaction quenched by addition of TFA. Intact insulin analogs at each point are determined by RP-HPLC. […] The amount of enzymes added for the degradation is such that the half time for degradation of the reference insulin is between 60 min and 180 min.

[3] = Hydrophobicity by isocratic reverse phase HPLC; format: physicochemical; conditions: k'rel, isocratic RP-HPLC, pH 7.3, human insulin = 1
Experimental: The hydrophobicity of an N-terminally modified insulin is found by reverse phase HPLC run under isocratic conditions. […] The hydrophobicity, k′rel, is calculated as: k′relderiv=((tderiv−t0)(tref−t0)*k′relref. Using HI as reference: k′relref=k′relHI=1. The void time of the HPLC system, t0, is determined by injecting 5 μl of 0.1 mM NaNO3. Running conditions:
Column: Lichrosorb RP-C18, 5 μm, 4×250 mm
Buffer A: 0.1 M natrium phosphate pH 7.3, 10 vol % CH3CN
After running an initial gradient, the isocratic level for running the derivative and reference (for example HI) is chosen, and the elution times of the derivative and reference under isocratic conditions are used in the above equation to calculate k′relderiv.

[4] = Chemical stability of insulin derivatives in 2 mM phosphate (SEC-HPLC and RP-HPLC); format: physicochemical; conditions: 4 weeks 37° C. minus 5° C. start sample; for HMWP Formation (%) (4 weeks 37° C.- 0 weeks 5° C.): pH 7.5, SEC-HPLC
Experimental: Chemical stability of an insulin derivative is assessed after incubating insulin derivative in 2 mM phosphate, pH=7.5 at 37° C. for up to 8 weeks. Formation of high molecular weight products (HMWP) is determined by SEC HPLC analysis after 0, 2, 4 and optionally 8 weeks. The results of the SEC method are given as a difference between HMWP formation at 37° C. and 5° C. start sample as a percentage of total absorbance at 215 nm. Chemical degradation products are determined by RP HPLC analysis after 0, 2, 4 and optionally 8 weeks. The results of the RP method are given as a difference between chemical degradation observed at 37° C. and 5° C. start sample as a percentage of total absorbance at 215 nm.
• Solvent: 500 mM NaCl, 10 mM NaH2PO4, 5 mM H3PO4, 50% (v/v) 2-propanol • Flow: 0.5 ml/min • Run time: 30 min • UV Detection: 215 nm • Column: Insulin HMWP column from Waters 7.8×300 mm • Temperature: 50° C.
• Solvent A: 0.09M phosphate buffer pH 3.6 (di-ammoniumhydrogenphosphate), 10% MeCN (v/v) • Solvent B: 80% MeCN (v/v %) • Flow: 0.3 ml/min • Runtime: 33 min • UV Detection: 215 nm • Column: Waters Acquity BEH130 C18 Column 1.7 μm, 150×2.1 mm • Temperature: 50° C. • Gradient: […]

[5] = Thioflavin T (ThT) fibrillation assay; format: physicochemical; conditions: same experiment as prior art derivatives, 37° C., 960 rpm, pH 7.4, mean ± SD
Excerpt: This has traditionally been measured by visual inspection of the sample. However, that kind of measurement is very subjective and depending on the observer. Therefore the application of a small molecule indicator probe is much preferred. […] The time course for fibril formation can be described by a sigmoidal curve with the following expression (Nielsen at al. Biochemistry 40, 6036-6046, 2001):
Here, F is the ThT fluorescence at the time t. The constant t0 is the time needed to reach 50% of maximum fluorescence. The two important parameters describing fibril formation are the lag-time calculated by t0-2[…] and the apparent rate constant kapp=1/{tilde over (□)}.
Samples were prepared freshly before each assay. Each analog was dissolved in 2 mM sodium phosphate, pH=7.4. Thioflavin T was added to the samples from a stock solution in water to a final concentration of 1 μM. Sample aliquots of 200 μl were placed in a 96 well microtiter plate (Packard Optiplate™-96, white polystyrene). Usually four replica of each sample (corresponding to one test condition) were placed in one column of wells. The plate was sealed with Scotch Pad (Qiagen).
Incubation at given temperature, shaking and measurements of the ThT fluorescence emission were done in either a Fluoroskan Ascent FL or Varioskan fluorescence plate reader (thermo Labsystems). The temperature was adjusted to 37° C. […] Fluorescence measurements were done using excitation through a 444 nm filter and measurement of emission through a 485 nm filter.
Each run was initiated by incubating the plate at the assay temperature for 10 min. The plate was measured every 20 minutes for typically 45 hours. Between each measurement, the plate was shaken and heated as described above.
The measurement data points were saved in Microsoft Excel format for further processing and curve drawing and fitting was performed using Graph Pad Prism. […] The data points are typically a mean of four samples. Only data obtained in the same experiment (i.e. samples on the same plate) are presented in the same graph ensuring a relative measure of fibrillation between the individual samples of one assay rather then comparison between different assays. The data set may be fitted to Eq. (1). However since the full sigmoidal curves are not usually achieved during the measurement time, the degree of fibrillation is expressed as ThT fluorescence at various time points calculated as the mean of the four samples and shown with the standard deviation

Primary rat adipocytes = experiment: Lipogenesis in rat adipocytes; format: cell-based; conditions: relative potency vs human insulin
Excerpt: As a measure of in vitro potency of the insulins of the invention, lipogenesis can be used.
The labelled glucose is converted into extractable lipids in a dose dependent way, resulting in full dose response curves.

T1 sequence (P06213 28-746 isoform P06213-2 limits assumed): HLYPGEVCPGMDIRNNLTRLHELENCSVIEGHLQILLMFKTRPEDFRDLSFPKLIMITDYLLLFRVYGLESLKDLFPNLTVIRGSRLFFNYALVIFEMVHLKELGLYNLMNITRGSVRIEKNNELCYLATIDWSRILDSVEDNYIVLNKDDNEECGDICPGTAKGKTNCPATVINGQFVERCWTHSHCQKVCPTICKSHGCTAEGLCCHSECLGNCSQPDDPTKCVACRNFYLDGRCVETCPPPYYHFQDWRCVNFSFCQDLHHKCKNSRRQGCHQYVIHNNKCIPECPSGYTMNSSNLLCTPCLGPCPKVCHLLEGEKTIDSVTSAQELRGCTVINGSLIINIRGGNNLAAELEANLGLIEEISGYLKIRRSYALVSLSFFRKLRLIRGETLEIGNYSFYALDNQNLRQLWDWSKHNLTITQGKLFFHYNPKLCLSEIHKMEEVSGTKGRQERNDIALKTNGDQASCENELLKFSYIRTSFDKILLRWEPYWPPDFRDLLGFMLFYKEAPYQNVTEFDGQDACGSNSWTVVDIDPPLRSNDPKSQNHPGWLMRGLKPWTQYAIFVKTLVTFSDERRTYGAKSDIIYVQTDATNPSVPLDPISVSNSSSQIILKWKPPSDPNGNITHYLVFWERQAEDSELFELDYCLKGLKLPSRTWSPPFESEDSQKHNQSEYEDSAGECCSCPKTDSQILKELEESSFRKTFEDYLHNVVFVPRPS
T1 sequence (P06213 763-1382 partner limits assumed): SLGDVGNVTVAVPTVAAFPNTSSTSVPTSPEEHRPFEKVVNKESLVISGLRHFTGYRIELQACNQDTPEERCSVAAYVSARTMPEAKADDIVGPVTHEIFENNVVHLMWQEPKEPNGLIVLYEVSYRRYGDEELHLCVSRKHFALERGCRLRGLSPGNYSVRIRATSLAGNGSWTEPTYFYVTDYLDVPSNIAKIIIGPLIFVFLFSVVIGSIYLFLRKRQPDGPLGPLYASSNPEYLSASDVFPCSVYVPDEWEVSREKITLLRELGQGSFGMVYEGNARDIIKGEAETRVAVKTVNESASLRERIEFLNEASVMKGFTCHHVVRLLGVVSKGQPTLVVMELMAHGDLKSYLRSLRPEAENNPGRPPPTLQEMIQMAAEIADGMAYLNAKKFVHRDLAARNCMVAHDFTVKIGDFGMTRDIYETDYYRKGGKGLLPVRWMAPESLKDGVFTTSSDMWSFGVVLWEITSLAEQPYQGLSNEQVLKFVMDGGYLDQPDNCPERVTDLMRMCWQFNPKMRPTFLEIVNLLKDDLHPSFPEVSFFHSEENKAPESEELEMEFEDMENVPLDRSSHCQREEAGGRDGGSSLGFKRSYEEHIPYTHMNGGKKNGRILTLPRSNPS

Row | Substance | Relative IR-A affinity (@ 0% HSA) (%) (human insulin receptor [1]) | Relative IR-A affinity (@ […] HSA) (%)e (human insulin receptor [2]) | Stability towards duodenum lumen enzymes (fold relative to A14E, B25H, desB30 human insulin) (duodenum lumen enzymes) | Hydrophobicity rel. to human insulin [3] | Chemical degradation (%) (4 weeks 37° C.- 0 weeks 5° C.) ([4]; pH 7.5, RP-HPLC) | HMWP Formation (%) (4 weeks 37° C.- 0 weeks 5° C.) [4] | ThT 0 h [5] | ThT 5 h [5] | ThT 10 h [5] | ThT 30 h [5] | ThT 40 h [5] | Lipogenesis in rat adipocytres (@ 0.1% HSA) rel. to human insulin (%) (Primary rat adipocytes)
1 | I: NMe2Phe-VCQHLCGSHLVEALHLVCGERGFHYTPK([AEEA-AEEA-γGlu-C20 diacid]) / II: Me2Gly-IVEQCCTSCCSLEQLENYCN (disulfide I:2-II:9, I:6-II:6, I:18-II:19, II:5-II:10) [Example 28, A1(N^α,N^α-Dimethyl), A10C, A14E, B1(N^α,N^α-dimethyl), B3C, B16H, B25H, B29K(N^εeicosanedioyl-gGlu-2×OEG), desB30 Human Insulin] | 0.1% | 0.01% | 1.6 fold | 0.298 |  |  |  |  |  |  |  | 
2 | I: NMe2Phe-VCQHLCGSHLVEALYLVCGERGFHYPK([AEEA-AEEA-γGlu-C18 diacid]) / II: Me2Gly-IVEQCCTSCCSLEQLENYCN (disulfide I:2-II:9, I:6-II:6, I:18-II:19, II:5-II:10) [Example 11, A1(N^α,N^α-Dimethyl), A10C, A14E, B1(N^α,N^α-dimethyl), B3C, B25H, desB27, B29K(N^εoctadecanedioyl-gGlu-2×OEG), desB30 Human Insulin] | 0.6% | 0.04% |  | 0.095 | 3.2% | −0.2% | 31 ± 0.4 | 23 ± 0.4 | 23 ± 0.6 | 21 ± 0.2 | 21 ± 0.3 | 
3 | I: NMe2Phe-VCQHLCGSHLVEALYLVCGERGFHYTPK([AEEA-AEEA-γGlu-C20 diacid]) / II: Me2Gly-IVEQCCTSCCSLEQLENYCN (disulfide I:2-II:9, I:6-II:6, I:18-II:19, II:5-II:10) [Example 2, A1(N^α,N^α-Dimethyl), A10C, A14E, B1(N^α,N^α-dimethyl), B3C, B25H, B29K(N^εeicosanedioyl-gGlu-2×OEG), desB30 Human Insulin] |  |  |  | 0.38 |  | 0.0% | 35 ± 0.9 | 22 ± 0.4 | 22 ± 0.3 | 20 ± 0.3 | 19 ± 0.3 | 0.025%
4 | I: {Phe(Nα-CONH2)}-VCQHLCGSHLVEALYLVCGERGFFYPK([AEEA-AEEA-γGlu-C18 diacid]) / II: Hydantoyl-IVEQCCTSCCSLEQLENYCN (disulfide I:2-II:9, I:6-II:6, I:18-II:19, II:5-II:10) [Example 33, A1(N^α-Carbamoyl), A10C, A14E, B1(N^α-carbamoyl), B3C, desB27, B29K(N^εoctadecanedioyl-gGlu-2×OEG), desB30 Human Insulin] | 0.6% |  | 1.6 fold |  |  |  |  |  |  |  |  | 
5 | I: {Phe(Nα-CONH2)}-VCQHLCGSHLVEALYLVCGERGFHYPK([AEEA-AEEA-γGlu-C20 diacid]) / II: Hydantoyl-IVEQCCTSCCSLEQLENYCN (disulfide I:2-II:9, I:6-II:6, I:18-II:19, II:5-II:10) [Example 46, A1(N^α-Carbamoyl), A10C, A14E, B1(N^α-carbamoyl), B3C, B25H, desB27, B29K(N^εeicosanedioyl-gGlu-2×OEG), desB30 Human Insulin] | 0.1% | 0.01% | 1.2 fold | 0.132 |  |  |  |  |  |  |  | 
6 | I: {Phe(Nα-CONH2)}-VCQHLCGSHLVEALYLVCGERGFHYPK([γGlu-C18 diacid]) / II: Hydantoyl-IVEQCCTSCCSLEQLENYCN (disulfide I:2-II:9, I:6-II:6, I:18-II:19, II:5-II:10) [Example 34, A1(N^αCarbamoyl), A10C, A14E, B1(N^αcarbamoyl), B3C, B25H, desB27, B29K(N^εoctadecanedioyl-gGlu), desB30 Human Insulin] | 0.1% | 0.00% | 1.8 fold |  |  |  | 20 ± 0.1 | 13 ± 0.7 | 13 ± 0.8 | 13 ± 0.4 | 13 ± 0.3 | 
